# Biological target: CCR1-rHDL (human C-C chemokine receptor 1 with C-terminal 1D4 tag, in reconstituted high density lipoprotein) (human) (UniProt P32246)
# Assay: SPR; CCR1-rHDL captured via immobilised 1D4 antibody on a CM5 chip (~3000 RU); MIP-1α variant flowed at 0.13-5.0 μM; 25 °C; 20 mM HEPES, pH 7.2, 100 mM NaCl; empty-rHDL on the control flow cell; steady-state fit
# UniProt P32246, sequence (P32246 whole entry): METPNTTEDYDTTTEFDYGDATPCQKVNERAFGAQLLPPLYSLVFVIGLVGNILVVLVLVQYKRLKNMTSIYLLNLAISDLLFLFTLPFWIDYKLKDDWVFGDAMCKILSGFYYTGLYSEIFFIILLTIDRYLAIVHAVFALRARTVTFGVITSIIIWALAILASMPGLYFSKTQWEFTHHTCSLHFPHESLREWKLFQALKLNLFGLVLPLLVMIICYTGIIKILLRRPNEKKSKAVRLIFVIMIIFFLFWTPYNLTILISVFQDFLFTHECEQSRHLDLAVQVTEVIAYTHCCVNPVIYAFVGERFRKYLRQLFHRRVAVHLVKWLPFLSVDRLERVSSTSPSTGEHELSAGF
substance,measurement,value
MIP-1α variant (P8A/F13Y/E67Q) (ligand),Kd,2 µM

# From publication PMC4662715
